From patent US9579300

Columns and labels:
purified αVβ3 integrin [1] = molecular target: purified αVβ3 integrin (UniProt P06756); test: [125I]-T4 radioligand displacement on purified αVβ3, native gel band intensity; LM609 at 2 µg/ml
purified αVβ3 integrin [2] = molecular target: purified αVβ3 integrin (UniProt P06756); test: [125I]-T4 radioligand displacement on purified αVβ3, native gel band intensity; LM609 at 4 µg/ml
purified αVβ3 integrin [3] = molecular target: purified αVβ3 integrin (UniProt P06756); test: [125I]-T4 radioligand displacement on purified αVβ3, native gel band intensity; LM609 at 8 µg/ml
purified αVβ3 integrin [4] = molecular target: purified αVβ3 integrin (UniProt P06756); test: [125I]-T4 radioligand displacement on 2 µg purified αVβ3, native gel band intensity; LM609 at 1 µg/ml
purified αVβ3 integrin [5] = molecular target: purified αVβ3 integrin (UniProt P06756); test: [125I]-T4 radioligand displacement on purified αVβ3, native gel band intensity; SC7312 at 1 µg/ml
purified αVβ3 integrin [6] = molecular target: purified αVβ3 integrin (UniProt P06756); test: [125I]-T4 radioligand displacement on purified αVβ3, native gel band intensity; SC7312 at 2 µg/ml
purified αVβ3 integrin [7] = molecular target: purified αVβ3 integrin (UniProt P06756); test: [125I]-T4 radioligand displacement on purified αVβ3, native gel band intensity; SC7312 at 4 µg/ml
purified αVβ3 integrin [8] = molecular target: purified αVβ3 integrin (UniProt P06756); test: [125I]-T4 radioligand displacement on purified αVβ3, native gel band intensity; SC7312 at 8 µg/ml
purified αVβ3 integrin [9] = molecular target: purified αVβ3 integrin (UniProt P06756); test: [125I]-T4 radioligand displacement on purified αVβ3, native gel band intensity; SC7312 at 8 µg/ml (figure legend; Example 17 prints 59%)

Sequence of UniProt P06756 (P06756 31-1048, form in doubt, chain 1 of 2): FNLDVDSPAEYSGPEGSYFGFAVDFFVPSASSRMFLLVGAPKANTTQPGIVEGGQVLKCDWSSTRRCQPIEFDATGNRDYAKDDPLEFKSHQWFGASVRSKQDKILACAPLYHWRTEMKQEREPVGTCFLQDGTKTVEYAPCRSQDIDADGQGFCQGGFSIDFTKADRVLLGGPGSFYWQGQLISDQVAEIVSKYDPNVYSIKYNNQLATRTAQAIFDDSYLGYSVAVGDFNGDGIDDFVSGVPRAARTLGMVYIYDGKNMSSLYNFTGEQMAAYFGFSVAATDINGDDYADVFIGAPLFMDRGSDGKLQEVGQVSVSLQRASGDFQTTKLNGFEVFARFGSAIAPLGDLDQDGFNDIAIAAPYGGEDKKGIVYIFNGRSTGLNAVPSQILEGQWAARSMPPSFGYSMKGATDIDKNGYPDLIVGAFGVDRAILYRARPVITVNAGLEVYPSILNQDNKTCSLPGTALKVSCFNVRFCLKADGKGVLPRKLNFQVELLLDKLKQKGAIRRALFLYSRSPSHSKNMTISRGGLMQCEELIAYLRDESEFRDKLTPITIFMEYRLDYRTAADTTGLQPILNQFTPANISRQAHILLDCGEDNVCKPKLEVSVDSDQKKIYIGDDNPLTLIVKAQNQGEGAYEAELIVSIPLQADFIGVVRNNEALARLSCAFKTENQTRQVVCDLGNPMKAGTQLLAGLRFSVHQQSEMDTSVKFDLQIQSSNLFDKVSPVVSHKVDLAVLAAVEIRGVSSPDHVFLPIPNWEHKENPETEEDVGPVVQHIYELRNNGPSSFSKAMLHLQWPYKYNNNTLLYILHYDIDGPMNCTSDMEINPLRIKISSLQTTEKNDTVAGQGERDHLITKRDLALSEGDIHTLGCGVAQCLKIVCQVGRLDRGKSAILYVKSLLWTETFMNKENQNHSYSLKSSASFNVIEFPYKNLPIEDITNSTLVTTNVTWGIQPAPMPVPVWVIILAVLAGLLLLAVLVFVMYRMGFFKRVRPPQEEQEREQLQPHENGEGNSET
Sequence of UniProt P06756 (P05106 27-788, form in doubt, chain 2 of 2, further chain): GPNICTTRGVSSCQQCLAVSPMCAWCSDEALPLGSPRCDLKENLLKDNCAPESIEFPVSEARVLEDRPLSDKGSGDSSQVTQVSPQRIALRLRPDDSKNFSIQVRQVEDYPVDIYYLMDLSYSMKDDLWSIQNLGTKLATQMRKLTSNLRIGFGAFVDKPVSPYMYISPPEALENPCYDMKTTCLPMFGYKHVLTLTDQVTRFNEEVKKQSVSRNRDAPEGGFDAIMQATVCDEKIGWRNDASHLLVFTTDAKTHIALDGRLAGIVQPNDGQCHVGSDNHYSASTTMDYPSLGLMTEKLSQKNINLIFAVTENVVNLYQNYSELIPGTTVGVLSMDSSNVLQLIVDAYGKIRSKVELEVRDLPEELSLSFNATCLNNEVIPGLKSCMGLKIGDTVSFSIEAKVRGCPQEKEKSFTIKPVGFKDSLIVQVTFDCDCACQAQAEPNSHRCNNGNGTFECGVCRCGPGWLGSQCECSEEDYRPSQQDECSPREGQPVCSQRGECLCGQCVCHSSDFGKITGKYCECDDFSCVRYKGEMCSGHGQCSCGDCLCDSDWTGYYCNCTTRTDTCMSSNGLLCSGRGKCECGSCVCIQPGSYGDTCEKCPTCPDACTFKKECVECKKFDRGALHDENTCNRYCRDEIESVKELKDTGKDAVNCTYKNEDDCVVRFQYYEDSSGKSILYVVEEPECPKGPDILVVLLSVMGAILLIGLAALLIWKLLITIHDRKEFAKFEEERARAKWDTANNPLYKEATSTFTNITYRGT

Substance	percent reduction of [125I]T4-αVβ3 band intensity (purified αVβ3 integrin [1])	percent reduction of [125I]T4-αVβ3 band intensity (purified αVβ3 integrin [2])	percent reduction of [125I]T4-αVβ3 band intensity (purified αVβ3 integrin [3])	percent reduction of [125I]T4-αVβ3 complex formation (purified αVβ3 integrin [4])	percent reduction of T4 binding to αVβ3 (purified αVβ3 integrin [5])	percent reduction of T4 binding to αVβ3 (purified αVβ3 integrin [6])	percent reduction of T4 binding to αVβ3 (purified αVβ3 integrin [7])	percent reduction of T4 binding to αVβ3 (purified αVβ3 integrin [8])	percent reduction of T4 binding to αVβ3 (purified αVβ3 integrin [9])
monoclonal antibody LM609 to αVβ3	64%	63%	81%	52%	–	–	–	–	–
monoclonal antibody SC7312 to αVβ3	–	–	–	–	20%	46%	47%	59%	58%
